Experimental data as given in patent US20220153821A1 (PROTHENA BIOSCIENCES, published 2022).
Substitutions are numbered along the chain they refer to.

B1: Hu3D6VHvb1 / Hu3D6VLvb1 (antibody, V domains shown)
VH: QVQLQQSGAELVKPGASVKLSCTASGFNIKDYYLHWVKQRPEQGLEWIGWIDPENGDTVYDPKFQGKATITADTSSNTAYLQLSSLTSEDTAVYFCSTLDFWGQGTTLTVSS
VL: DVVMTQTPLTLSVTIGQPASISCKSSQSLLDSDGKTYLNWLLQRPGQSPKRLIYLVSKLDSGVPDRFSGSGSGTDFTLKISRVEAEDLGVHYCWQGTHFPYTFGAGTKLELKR
notes: Humanized 3D6 variant, transiently expressed as intact antibody in HEK-293 cells; also called VHvb1/VLvb1
B2: Hu3D6VHvb4 / Hu3D6VLvb2 (antibody, V domains shown)
VH: EVQLVQSGAEVVKPGATVKISCKASGFTIKDYYLHWVRQRPGKGLEWIGWIDPENGDTIYDPKFQGRVTITADTSTDTAYMELSSLRSEDTAVYYCSTLDFWGQGTLVTVSS
VL: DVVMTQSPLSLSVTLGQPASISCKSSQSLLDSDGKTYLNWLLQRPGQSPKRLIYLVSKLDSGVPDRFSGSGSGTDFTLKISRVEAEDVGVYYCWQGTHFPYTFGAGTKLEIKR
notes: Humanized 3D6 variant, expressed as intact antibody in HEK-293 cells; also called VHvb4/VLvb2
B3: Hu3D6VHvb2 / Hu3D6VLvb2 (antibody, V domains shown)
VH: B2 VH with T17S, T28N, I59V, V68A, M81L, R87T, Y95F
VL: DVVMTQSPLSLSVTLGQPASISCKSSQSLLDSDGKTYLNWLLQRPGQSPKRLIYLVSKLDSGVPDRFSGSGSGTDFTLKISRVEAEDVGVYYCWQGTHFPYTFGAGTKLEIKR
notes: Humanized 3D6 variant, expressed as intact antibody in HEK-293 cells; also called VHvb2/VLvb2
B4: Hu3D6VHvb2 / Hu3D6VLvb3 (antibody, V domains shown)
VH: B2 VH with T17S, T28N, I59V, V68A, M81L, R87T, Y95F
VL: DVVMTQSPLSLSVTLGEPASISCRSSQSLLDSDGKTYLNWLQQRPGQSPRRLIYLVSKLDSGVPDRFSGSGSGTDFTLKISRVEAEDVGVYYCWQGTHFPYTFGQGTKLEIKR
notes: Humanized 3D6 variant, expressed as intact antibody in HEK-293 cells; also called VHvb2/VLvb3
B5: Hu3D6VHvb3 / Hu3D6VLvb2 (antibody, V domains shown)
VH: B2 VH with T28N, V68A
VL: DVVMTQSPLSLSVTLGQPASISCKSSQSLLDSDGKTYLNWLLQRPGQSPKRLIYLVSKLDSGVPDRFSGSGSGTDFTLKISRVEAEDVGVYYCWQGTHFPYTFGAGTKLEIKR
notes: Humanized 3D6 variant, expressed as intact antibody in HEK-293 cells; also called VHvb3/VLvb2
B6: Hu3D6VHvb3 / Hu3D6VLvb3 (antibody, V domains shown)
VH: B2 VH with T28N, V68A
VL: B4 VL
notes: Humanized 3D6 variant, expressed as intact antibody in HEK-293 cells; also called VHvb3/VLvb3
B7: Hu3D6VHvb4 / Hu3D6VLvb3 (antibody, V domains shown)
VH: B2 VH
VL: B4 VL
notes: Humanized 3D6 variant, expressed as intact antibody in HEK-293 cells; also called VHvb4/VLvb3
B8: Hu3D6VHvb5 / Hu3D6VLvb2 (antibody, V domains shown)
VH: B2 VH with N55D, D57E
VL: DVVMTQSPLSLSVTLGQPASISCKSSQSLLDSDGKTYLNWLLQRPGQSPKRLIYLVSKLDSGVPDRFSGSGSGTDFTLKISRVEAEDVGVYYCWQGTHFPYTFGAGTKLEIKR
notes: Humanized 3D6 variant, expressed as intact antibody in HEK-293 cells; also called VHvb5/VLvb2
B9: Hu3D6VHvb5 / Hu3D6VLvb3 (antibody, V domains shown)
VH: B2 VH with N55D, D57E
VL: B4 VL
notes: Humanized 3D6 variant, expressed as intact antibody in HEK-293 cells; also called VHvb5/VLvb3
B10: Hu3D6VHvb6 / Hu3D6VLvb2 (antibody, V domains shown)
VH: B2 VH with N55D, D57E, I59V, Y95F
VL: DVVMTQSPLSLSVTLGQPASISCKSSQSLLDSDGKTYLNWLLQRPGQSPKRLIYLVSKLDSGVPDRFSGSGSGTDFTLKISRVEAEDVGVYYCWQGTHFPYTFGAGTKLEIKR
notes: Humanized 3D6 variant, expressed as intact antibody in HEK-293 cells; also called VHvb6/VLvb2
B11: Hu3D6VHvb6 / Hu3D6VLvb3 (antibody, V domains shown)
VH: B2 VH with N55D, D57E, I59V, Y95F
VL: B4 VL
notes: Humanized 3D6 variant, expressed as intact antibody in HEK-293 cells; also called VHvb6/VLvb3
B12: Hu3D6VHvb7 / Hu3D6VLvb2 (antibody, V domains shown)
VH: B2 VH with N55D, D57E, I59V
VL: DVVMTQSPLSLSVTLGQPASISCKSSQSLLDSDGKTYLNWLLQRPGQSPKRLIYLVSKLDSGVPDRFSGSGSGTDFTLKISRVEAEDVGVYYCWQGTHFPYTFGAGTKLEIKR
notes: Humanized 3D6 variant, expressed as intact antibody in HEK-293 cells; also called VHvb7/VLvb2
B13: Hu3D6VHvb7 / Hu3D6VLvb3 (antibody, V domains shown)
VH: B2 VH with N55D, D57E, I59V
VL: B4 VL
notes: Humanized 3D6 variant, expressed as intact antibody in HEK-293 cells; also called VHvb7/VLvb3
B14: anti-tau antibody 5G8 (antibody, V domains shown)
VH: EVQLQQSGAELVRSGASVRLSCTASGFNIKDYYMHWVRQRPEQGLEWIGWIDPENGDTVYAPKFQGKATMTSDTSSNTAYLHLSSLTSEDTAVYYCSPLDFWGQGTTLTVSS
VL: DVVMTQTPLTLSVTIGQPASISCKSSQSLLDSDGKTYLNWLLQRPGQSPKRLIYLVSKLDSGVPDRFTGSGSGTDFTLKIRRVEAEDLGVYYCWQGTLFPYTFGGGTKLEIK
B15: 8A4 (antibody, V domains shown)
VH: B1 VH with Q1E, K13R, S17L, T23K, L34I, K63Q, G66D, T69N, D90G, F95Y
VL: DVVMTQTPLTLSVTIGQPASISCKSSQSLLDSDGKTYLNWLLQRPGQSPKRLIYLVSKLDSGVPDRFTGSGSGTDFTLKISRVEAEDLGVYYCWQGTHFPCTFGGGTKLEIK
B16: mouse 3D6 antibody (antibody, V domains shown)
VH: B1 VH with Q1E, E10D, K13R, S17L, T23K, K38R, S84G
VL: not shown
notes: Mouse monoclonal antibody from hybridoma; also called murine 3D6; m3D6

These binders were tested against T1, recombinant human tau (human, UniProt P10636-6 1-383, limits assumed) (assay: SPR, Biacore T200, antibody captured by anti-human antibody, tau as analyte, single cycle, 1:1 fit).
T1 construct: also called recombinant tau
T1 sequence (P10636 other isoform, or with tags, fused parts or gaps limits assumed): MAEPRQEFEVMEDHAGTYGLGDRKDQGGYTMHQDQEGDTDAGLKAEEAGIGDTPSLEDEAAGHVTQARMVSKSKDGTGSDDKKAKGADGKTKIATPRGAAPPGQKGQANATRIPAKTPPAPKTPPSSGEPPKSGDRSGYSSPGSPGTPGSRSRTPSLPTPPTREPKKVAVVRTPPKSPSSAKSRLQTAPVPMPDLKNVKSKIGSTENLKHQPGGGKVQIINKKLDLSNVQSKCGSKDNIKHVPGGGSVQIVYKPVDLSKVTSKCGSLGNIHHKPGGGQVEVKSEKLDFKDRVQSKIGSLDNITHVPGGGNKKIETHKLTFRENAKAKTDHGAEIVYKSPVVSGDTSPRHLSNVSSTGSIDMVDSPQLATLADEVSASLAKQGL
Procedure: Affinity of purified humanized variants to tau were determined by surface plasmon resonance (SPR). SPR analysis was performed using a Biacore T200 to determine the binding kinetics of humanized antibodies to recombinant human tau. To prepare a sensor surface, anti-human antibody (GE Life Sciences) was immobilized on sensor chip CM3 via amine coupling, and antibody was captured at a level to ensure maximum binding of 50 RU. Various concentrations of recombinant tau ranging from 50-0.62 nM were passed over the captured ligand at a flow rate of 50 μL/min in running buffer (HBS+0.05% P-20, 1 mg/mL BSA), in a single cycle manner. Data were double-referenced to both an irrelevant sensor not containing antibody ligand, and 0 nM analyte concentration to account for the dissociation of ligand from the capture moiety. Data were then analyzed using a 1:1 fit. Results are presented in Table 9, in columns labeled “k₀ (M⁻¹s⁻¹), koff (s⁻¹), and Kd (nM).”

Binder	Kd	koff	kon
B1	0.64 nM	0.0009 s⁻¹	1.4e+06 M⁻¹ s⁻¹
B2	4.2 nM	0.0029 s⁻¹	690000 M⁻¹ s⁻¹
B3	0.04 nM	5.7e-05 s⁻¹	1.5e+06 M⁻¹ s⁻¹
B4	0.19 nM	0.0003 s⁻¹	1.6e+06 M⁻¹ s⁻¹
B5	1.07 nM	0.0015 s⁻¹	1.4e+06 M⁻¹ s⁻¹
B6	1.13 nM	0.0018 s⁻¹	1.6e+06 M⁻¹ s⁻¹
B7	3.74 nM	0.0034 s⁻¹	910000 M⁻¹ s⁻¹
B8	1.44 nM	0.0026 s⁻¹	1.8e+06 M⁻¹ s⁻¹
B9	1.4 nM	0.0028 s⁻¹	2e+06 M⁻¹ s⁻¹
B10	0.107 nM	0.000369 s⁻¹	3.45e+06 M⁻¹ s⁻¹
B11	0.152 nM	0.000538 s⁻¹	3.54e+06 M⁻¹ s⁻¹
B12	0.252 nM	0.000779 s⁻¹	3.09e+06 M⁻¹ s⁻¹
B13	0.209 nM	0.00077 s⁻¹	3.69e+06 M⁻¹ s⁻¹

These binders were tested against recombinant human tau (human, UniProt P10636 1-383) (assay: SPR, Biacore T200: antibody captured on anti-mouse CM5 chip, recombinant human tau 10-0.14 nM as analyte, global 1:1 fit).
Chain of recombinant human tau (human, UniProt P10636 1-383) (P10636 other isoform, or with tags, fused parts or gaps): as the sequence (P10636 other isoform, or with tags, fused parts or gaps limits assumed) above
Procedure: (§1) Methods: SPR analysis was performed using a Biacore T200 to determine the binding kinetics of murine antibodies to recombinant human tau. To prepare a sensor surface, anti-mouse antibody (GE Life Sciences) was immobilized on sensor chip CM5 via amine coupling, and antibody was captured at a level to ensure maximum binding of 50 RU. Various concentrations of recombinant tau ranging from 10-0.14 nM were passed over the captured ligand at a flow rate of 50 μL/min in running buffer (HBS+0.05% P-20, 1 mg/mL BSA), for 180 sec association and 900 sec dissociation. Data were double-referenced to both an irrelevant sensor not containing antibody ligand, and 0 nM analyte concentration to account for the dissociation of ligand from the capture moiety. Data was then analyzed using a global 1:1 fit.
(§2) Results: Multiple murine antibodies were selected based on their performance in a battery of ELISA assays, and their binding affinities were assessed via SPR. Antibodies were tested in parallel sets, and their binding association and dissociation rates were compared to select the highest binder to recombinant human tau.

Binder	Kd	koff	kon
B14	6.78 nM	0.00254 s⁻¹	375000 M⁻¹ s⁻¹
B15	3.8 nM	0.00227 s⁻¹	599000 M⁻¹ s⁻¹

Each binder was assayed against T1, recombinant human tau in the same assay as above.
Procedure: as §1, §2

Binder	Kd	koff	kon
B16	0.46 nM	0.00119 s⁻¹	2.58e+06 M⁻¹ s⁻¹
